Measurements published in paper PMC9335285 (Proceedings of the National Academy of Sciences of the …, 2022).

Biological target: the molecule itself
Assay: cross-linking

B1: full-length Mycobacterium tuberculosis MmpL3 (natural protein)
chain: MFAWWGRTVYRYRFIVIGVMVALCLGGGVFGLSLGKHVTQSGFYDDGSQSVQASVLGDQVYGRDRSGHIVAIFQAPAGKTVDDPAWSKKVVDELNRFQQDHPDQVLGWAGYLRASQATGMATADKKYTFVSIPLKGDDDDTILNNYKAIAPDLQRLDGGTVKLAGLQPVAEALTGTIATDQRRMEVLALPLVAVVLFFVFGGVIAAGLPVMVGGLCIAGALGIMRFLAIFGPVHYFAQPVVSLIGLGIAIDYGLFIVSRFREEIAEGYDTETAVRRTVITAGRTVTFSAVLIVASAIGLLLFPQGFLKSLTYATIASVMLSAILSITVLPACLGILGKHVDALGVRTLFRVPFLANWKISAAYLNWLADRLQRTKTREEVEAGFWGKLVNRVMKRPVLFAAPIVIIMILLIIPVGKLSLGGISEKYLPPTNSVRQAQEEFDKLFPGYRTNPLTLVIQTSNHQPVTDAQIADIRSKAMAIGGFIEPDNDPANMWQERAYAVGASKDPSVRVLQNGLINPADASKKLTELRAITPPKGITVLVGGTPALELDSIHGLFAKMPLMVVILLTTTIVLMFLAFGSVVLPIKATLMSALTLGSTMGILTWIFVDGHFSKWLNFTPTPLTAPVIGLIIALVFGLSTDYEVFLVSRMVEARERGMSTQEAIRIGTAATGRIITAAALIVAVVAGAFVFSDLVMMKYLAFGLMAALLLDATVVRMFLVPSVMKLLGDDCWWAPRWARRLQTRIGLGEIHLPDERKRPVSNGRPARPPVTAGLVAARAAGDPRPPHDPTHPLAESPRPARSSPASSPELTPALEATAAPAAPSGASTTRMQIGSSTEPPTTRLAAAGRSVQSPASTPPPTPTPPSAPSAGQTRAMPLAANRSTDAAGDPAEPTAALPIIRSDGDDSEAATEQLNARGTSDKTRQRRRGGGALSAQDLLRREGRL
B1: binds.
